Measured values from publication PMC12856154.

Molecular target: persulfide dioxygenase from Pseudomonas aeruginosa (PaPDO) (Pseudomonas aeruginosa)
Assay: SEC; Superdex 75 10/300, 20 mM Tris-HCl pH 8.0, 200 mM NaCl, 1 mL/min; calibrated with protein standards; elution at 10.8 mL

stoichiometry N: 2
Substance: persulfide dioxygenase from Pseudomonas aeruginosa (PaPDO) (enzyme)
